Assay results as given in publication PMC5426754.
Like-named read-outs stand apart in the source and are kept apart here.

Experiments:
[1] = biological target: S100A4-Δ9 (S100A4 C-terminally truncated by 9 residues) (UniProt P26447); experiment: NMR titration; unlabeled C-ERMAD (7.5 mM stock) added gradually to 15N-labeled S100A4-Δ9 dimer (250 μM) up to 2.1:1; 1H-15N HSQC, 700 MHz, 300 K; 20 mM MES pH 6.0, 150 mM NaCl, 10 mM CaCl2, 5 mM TCEP; ten shifting peaks fitted to a quadratic binding equation
[2] = biological target: S100A4 (metastasin), wild type (UniProt P26447); experiment: fluorescence polarisation; competitive FP; 50 nM Fl-NMIIA complexed with 4 μM S100A4 dimer titrated with ezrin constructs; competition binding equation; triplicates
Chain of S100A4 (metastasin), wild type (UniProt P26447) (P26447 whole entry): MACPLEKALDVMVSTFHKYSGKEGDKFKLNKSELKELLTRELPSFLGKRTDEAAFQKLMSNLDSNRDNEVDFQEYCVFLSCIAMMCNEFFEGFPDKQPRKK

[3] = biological target: S100A4 (metastasin), wild type (UniProt P26447); experiment: as above; remark: listed apart in the source
[4] = biological target: Fl-C-ERMAD^516–560 (fluorescently labeled, Cys-Lys516-Leu560) (human); experiment: fluorescence polarisation; direct FP; 50 nM fluorescent tracer (Fl-C-ERMAD variants or Fl-NMIIA) titrated with S100 proteins or N-ERMAD; 20 mM HEPES pH 7.5, 150 mM NaCl, 0.1 mM TCEP, 1 mM CaCl2, 0.05% Tween-20; triplicates; quadratic binding equation

Chain of S100A4 (metastasin), wild type (from UniProt P26447 1-101) (natural protein) (P26447 whole entry): as above
Chain of Ezrin C-ERMAD (Cys-Lys516-Leu586), unlabeled (P15311 other isoform, or with tags, fused parts or gaps): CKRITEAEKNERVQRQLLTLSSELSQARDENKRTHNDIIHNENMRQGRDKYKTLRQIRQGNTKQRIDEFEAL

Ezrin C-ERMAD (Cys-Lys516-Leu586), unlabeled (from UniProt P15311 516-586) (domain or fragment)
Kd [1]: 10.8 µM

Ezrin C-ERMAD^516–560 (Cys-Lys516-Leu560), unlabeled (domain or fragment)
Kd [2]: 27.6 µM | Kd [3]: 28.6 µM

S100A4 (metastasin), wild type (from UniProt P26447 1-101) (natural protein)
Kd [4]: 8.4 µM
